Several values for one entry are separate records, joined by “and”; a condition that tells them apart may be missing. Equal entries are not always repeated.
Settings: whole UniProt chain shown
[1] = Homo sapiens, pH 7.5, 23 °C, GdnHCl, Fluorescence, Tris-HCl 50 mM, reversible: yes
[2] = Geobacillus stearothermophilus, pH 8, 25 °C, Urea, CD, Sodium phosphate 20 mM, NaCl 100 mM, reversible: Yes
[3] = Geobacillus stearothermophilus, pH 8, 25 °C, Urea, CD, sodium phosphate 20 mM, sodium chloride 100 mM, reversible: yes
[4] = Geobacillus stearothermophilus, pH 8, 25 °C, Urea, Fluorescence, Sodium phosphate 20 mM, NaCl 100 mM, reversible: Yes
[5] = Halobacterium salinarum (strain ATCC 700922 / JCM 11081 / NRC-1), pH 6.5, Thermal, DSC, None, reversible: no
[6] = Halobacterium salinarum (strain ATCC 700922 / JCM 11081 / NRC-1), pH 7, Thermal, DSC, Potassium phosphate 3 mM, KCl 150 mM, reversible: no
[7] = Homo sapiens, pH 7.4, 25 °C, Urea, CD, transition: 2, reversible: yes
[8] = Homo sapiens, pH 7.4, 25 °C, Urea, absorbance, transition: 2, reversible: yes
[9] = Homo sapiens, pH 7.4, 25 °C, Urea, fluorescence, transition: 2, reversible: yes
[10] = Homo sapiens, pH 6.2, 25 °C, 2-Propanol, CD, Piperazine Unknown, NaCl 30 mM, transition: 2, reversible: Yes
[11] = Hydrogenobacter thermophilus (strain DSM 6534 / IAM 12695 / TK-6), pH 7, Thermal, CD, KH2PO4-NaOH 10 mM, reversible: yes
[12] = Homo sapiens, pH 5.2, 20 °C, GdnHCl, CD, Sodium acetate 20 mM, reversible: yes

B1: Metallocarboxypeptidase inhibitor wild type, P81511 (protein)
chain: MFLLVFLCCLHLVISSHTPDESFLCYQPDQVCCFICRGAAPLPSEGECNPHPTAPWCREGAVEWVPYSTGQCRTTCIPYVE
Hirudo medicinalis, pH 8.4, 23 °C, GdnHCl, Fluorescence, Tris-HCl 0.1 M
  denaturant midpoint (higher = more stable): 3.6 M
Hirudo medicinalis, pH 8.4, 23 °C, GdnSCN, Fluorescence, Tris-HCl 0.1 M
  denaturant midpoint (higher = more stable): 2.4 M

B2: Phosphoglycerate kinase wild type, P18912 (protein)
chain: MNKKTIRDVDVRGKRVFCRVDFNVPMEQGAITDDTRIRAALPTIRYLIEHGAKVILASHLGRPKGKVVEELRLDAVAKRLGELLERPVAKTNEAVGDEVKAAVDRLNEGDVLLLENVRFYPGEEKNDPELAKAFAELADLYVNDAFGAAHRAHASTEGIAHYLPAVAGFLMEKELEVLGKALSNPDRPFTAIIGGAKVKDKIGVIDNLLEKVDNLIIGGGLAYTFVKALGHDVGKSLLEEDKIELAKSFMEKAKEKGVRFYMPVDVVVADRFANDANTKVVPIDAIPADWSALDIGPKTRELYRDVIRESKLVVWNGPMGVFEMDAFAHGTKAIAEALAEALDTYSVIGGGDSAAAVEKFGLADKMDHISTGGGASLEFMEGKQLPGVVALEDK
Geobacillus stearothermophilus, pH 7.2, 25 °C, GdnHCl, Fluorescence, TEA 50 mM, reversible: no
  unfolding free energy: 13.2 kcal/mol and 9.3 kcal/mol
Geobacillus stearothermophilus, pH 7.2, 25 °C, GdnHCl, Fluorescence, tri-ethanolamine 50 mM, reversible: Yes
  unfolding free energy: 8.76 kcal/mol

B3: Tissue factor wild type, P13726 (protein)
chain: METPAWPRVPRPETAVARTLLLGWVFAQVAGASGTTNTVAAYNLTWKSTNFKTILEWEPKPVNQVYTVQISTKSGDWKSKCFYTTDTECDLTDEIVKDVKQTYLARVFSYPAGNVESTGSAGEPLYENSPEFTPYLETNLGQPTIQSFEQVGTKVNVTVEDERTLVRRNNTFLSLRDVFGKDLIYTLYYWKSSSSGKKTAKTNTNEFLIDVDKGENYCFSVQAVIPSRTVNRKSTDSPVECMGQEKGEFREIFYIIGAVVFVVIILVIILAISLHKCRKAGVGQSWKENSPLNVS
[1]
  denaturant midpoint (higher = more stable): 1.35 M
  unfolding free energy: 6.3 kcal/mol

B4: Arginine kinase wild type, P14208 (protein)
chain: MADAATIAKLEEGFKKLEAATDCKSLLKKYLSKDIFDSLKAKKTSLGATLLDVIQSGVENLDSGVGIYAPDAEAYSLFAPLFDPIIEDYHKGFKQTDKHPAKDFGDVSKFINVDPEGTFVISTRVRCGRSMEGYPFNPCLTEAQYKEMEEKVSSTLSGLEGELKGSYFPLTGMTKEVQQKLIDDHFLFKEGDRFLQAANACRYWPAGRGIYHNDNKTFLVWCNEEDHLRIISMQMGGDLGQVYRRLVSAVNDIEKRVPFSHHDRLGFLTFCPTNLGTTVRASVHIKLPKLAANREKLEEVAAKFSLQVRGTRGEHTEAEGGIYDISNKRRMGLTEFQAVKEMQDGILELIKIEKEM
Homarus gammarus, pH 7.4, 22 °C, GdnHCl, CD, Sodium phosphate 100 mM
  unfolding free energy: 5.98 kcal/mol

B5: Large ribosomal subunit protein bL9 wild type, P02417 (protein)
chain: MKVIFLKDVKGKGKKGEIKNVADGYANNFLFKQGLAIEATPANLKALEAQKQKEQRQAAEELANAKKLKEQLEKLTVTIPAKAGEGGRLFGSITSKQIAESLQAQHGLKLDKRKIELADAIRALGYTNVPVKLHPEVTATLKVHVTEQK
[2]
  denaturant m value: 1.02 kcal/mol/M
  unfolding free energy: 6.45 kcal/mol
[3]
  denaturant m value: 1.02 kcal/mol/M
  unfolding free energy: 6.38 kcal/mol
[4]
  denaturant m value: 1.05 kcal/mol/M
  unfolding free energy: 6.49 kcal/mol
Geobacillus stearothermophilus, pH 8, Thermal, CD, Sodium phosphate 20 mM, NaCl 100 mM, reversible: Yes (>90%)
  unfolding free energy: 5.77 kcal/mol

B6: SNARE-associated protein Snapin wild type, O95295 (protein)
chain: MAGAGSAAVSGAGTPVAGPTGRDLFAEGLLEFLRPAVQQLDSHVHAVRESQVELREQIDNLATELCRINEDQKVALDLDPYVKKLLNARRRVVLVNNILQNAQERLRRLNHSVAKETARRRAMLDSGIYPPGSPGK
Homo sapiens, pH 7.4, Thermal, CD, Tris 50 mM
  Tm: 57.9 °C

B7: Bacteriorhodopsin wild type, P02945 (protein)
chain: MLELLPTAVEGVSQAQITGRPEWIWLALGTALMGLGTLYFLVKGMGVSDPDAKKFYAITTLVPAIAFTMYLSMLLGYGLTMVPFGGEQNPIYWARYADWLFTTPLLLLDLALLVDADQGTILALVGADGIMIGTGLVGALTKVYSYRFVWWAISTAAMLYILYVLFFGFTSKAESMRPEVASTFKVLRNVTVVLWSAYPVVWLIGSEGAGIVPLNIETLLFMVLDVSAKVGFGLILLRSRAIFGEAEAPEPSAGDGAAATSD
[5]
  Tm: 96 °C
  unfolding enthalpy (calorimetric): 83.7 kcal/mol
[6]
  Tm: 85 °C
  unfolding enthalpy (calorimetric): 23 kcal/mol
  unfolding enthalpy (van 't Hoff): 76 kcal/mol
Halobacterium salinarum (strain ATCC 700922 / JCM 11081 / NRC-1), pH 7.5, Thermal, DSC, phosphate 190 mM, reversible: no
  Tm: 95.1 °C
Halobacterium salinarum (strain ATCC 700922 / JCM 11081 / NRC-1), pH 7.9, Thermal, CD, glycylglycine 50 mM, NaCl 100 mM, reversible: no
  Tm: 79 °C
Halobacterium salinarum (strain ATCC 700922 / JCM 11081 / NRC-1), pH 9.5, Thermal, DSC, carbonate 50 mM, NaCl 100 mM, reversible: no
  Tm: 81 °C

B8: Peroxiredoxin-6 wild type, P30041 (protein)
chain: MPGGLLLGDVAPNFEANTTVGRIRFHDFLGDSWGILFSHPRDFTPVCTTELGRAAKLAPEFAKRNVKLIALSIDSVEDHLAWSKDINAYNCEEPTEKLPFPIIDDRNRELAILLGMLDPAEKDEKGMPVTARVVFVFGPDKKLKLSILYPATTGRNFDEILRVVISLQLTAEKRVATPVDWKDGDSVMVLPTIPEEEAKKLFPKGVFTKELPSGKKYLRYTPQP
[7]
  denaturant m value: 1.02 kcal/mol/M
  denaturant midpoint (higher = more stable): 3.02 M
  unfolding free energy: 3.17 kcal/mol
[8]
  denaturant m value: 1.03 kcal/mol/M
  denaturant midpoint (higher = more stable): 2.71 M
  unfolding free energy: 2.82 kcal/mol
[9]
  denaturant m value: 1.04 kcal/mol/M
  denaturant midpoint (higher = more stable): 2.74 M
  unfolding free energy: 2.88 kcal/mol

B9: Thymidylate synthase wild type, P00469 (protein)
chain: MLEQPYLDLAKKVLDEGHFKPDRTHTGTYSIFGHQMRFDLSKGFPLLTTKKVPFGLIKSELLWFLHGDTNIRFLLQHRNHIWDEWAFEKWVKSDEYHGPDMTDFGHRSQKDPEFAAVYHEEMAKFDDRVLHDDAFAAKYGDLGLVYGSQWRAWHTSKGDTIDQLGDVIEQIKTHPYSRRLIVSAWNPEDVPTMALPPCHTLYQFYVNDGKLSLQLYQRSADIFLGVPFNIASYALLTHLVAHECGLEVGEFIHTFGDAHLYVNHLDQIKEQLSRTPRPAPTLQLNPDKHDIFDFDMKDIKLLNYDPYPAIKAPVAV
Lacticaseibacillus casei, pH 7, 4 °C, Urea, CD, KHPO4 20 mM, KCl 0.5 M, reversible: yes
  unfolding free energy: 19.1 kcal/mol

B10: Glycodelin wild type, P09466 (protein)
chain: MLCLLLTLGVALVCGVPAMDIPQTKQDLELPKLAGTWHSMAMATNNISLMATLKAPLRVHITSLLPTPEDNLEIVLHRWENNSCVEKKVLGEKTENPKKFKINYTVANEATLLDTDYDNFLFLCLQDTTTPIQSMMCQYLARVLVEDDEIMQGFIRAFRPLPRHLWYLLDLKQMEEPCRF
[10]
  denaturant m value: 1.5 kcal/mol/M
  denaturant midpoint (higher = more stable): 3.5 M
  unfolding free energy: 5.4 kcal/mol

B11: Cytochrome b5 type B wild type, O43169 (protein)
chain: MSGSMATAEASGSDGKGQEVETSVTYYRLEEVAKRNSLKELWLVIHGRVYDVTRFLNEHPGGEEVLLEQAGVDASESFEDVGHSSDAREMLKQYYIGDIHPSDLKPESGSKDPSKNDTCKSCWAYWILPIIGAVLLGFLYRYYTSESKSS
Homo sapiens, pH 7, 25 °C, GdmSCN, UV/visible spectrophotometer, MOPS 30mM
  denaturant midpoint (higher = more stable): 1.86 M
Homo sapiens, pH 7, Thermal, UV/visible spectrophotometer, Potassium phosphate 50mM
  Tm: 85.7 °C

B12: Endo-1,4-beta-xylanase 2 wild type, P36217 (protein)
chain: MVSFTSLLAGVAAISGVLAAPAAEVESVAVEKRQTIQPGTGYNNGYFYSYWNDGHGGVTYTNGPGGQFSVNWSNSGNFVGGKGWQPGTKNKVINFSGSYNPNGNSYLSVYGWSRNPLIEYYIVENFGTYNPSTGATKLGEVTSDGSVYDIYRTQRVNQPSIIGTATFYQYWSVRRNHRSSGSVNTANHFNAWAQQGLTLGTMDYQIVAVEGYFSSGSASITVS
Hypocrea jecorina (strain ATCC 56765 / BCRC 32924 / NRRL 11460 / Rut C-30), pH 5, Thermal, DSC, citrate - phosphate buffer 50 mM
  Tm: 61.4 °C

B13: wild type, Q2YD82 (protein)
chain: MDCAEGRAANLPCNHSTISGNEYVYWYRQIHSQGPQYIIHGLKNNETNEMASLIITEDRKSSTLILPHATLRDTAVYYCIVYDYGQNFVFGPGTRLSVLPYIQNPDPAVYQLRDSKSSDKSVCLFTDFDSQTNVSQSKDSDVYITDKTVLDMRSMDFKSNSAVAWSNKSDFACANAFNNSIIPEDTFFPSPESSCDVKLVEKSFETDTNLNFQNLSVIGFRILLLKVAGFNLLMTLRLWSS
Homo sapiens, Thermal, fluorescence
  Tm: 54.9 °C and 53.3 °C

B14: wild type, Q96HL2 (protein)
chain: MTKLRAQQCRFWTSFFPKVLEMTGNIDEAEWEWKAGFHRWNNYMMDWKNQFNDYTSKKESCVGL
Homo sapiens, pH 8, Thermal, DSC, sodium phosphate 50 mM
  Tm: 62.8 °C

B15: Cytochrome c-552 wild type, P15452 (protein)
chain: MKKFLLVAVVGLAGITFANEQLAKQKGCMACHDLKAKKVGPAYADVAKKYAGRKDAVDYLAGKIKKGGSGVWGSVPMPPQNVTDAEAKQLAQWILSIK
[11]
  Tm: 90 °C
  unfolding enthalpy (van 't Hoff): 83.5 kcal/mol

B16: Persulfide dioxygenase ETHE1, mitochondrial wild type, O95571 (protein)
chain: MAEAVLRVARRQLSQRGGSGAPILLRQMFEPVSCTFTYLLGDRESREAVLIDPVLETAPRDAQLIKELGLRLLYAVNTHCHADHITGSGLLRSLLPGCQSVISRLSGAQADLHIEDGDSIRFGRFALETRASPGHTPGCVTFVLNDHSMAFTGDALLIRGCGRTDFQQGCAKTLYHSVHEKIFTLPGDCLIYPAHDYHGFTVSTVEEERTLNPRLTLSCEEFVKIMGNLNLPKPQQIDFAVPANMRCGVQTPTA
Homo sapiens, pH 7.5, Thermal, CD, Tris-HCl 50mM, NaCl 150mM, transition: 2
  Tm: 62 °C

B17: Lysozyme C wild type, P61626 (protein)
chain: MKALIVLGLVLLSVTVQGKVFERCELARTLKRLGMDGYRGISLANWMCLAKWESGYNTRATNYNAGDRSTDYGIFQINSRYWCNDGKTPGAVNACHLSCSALLQDNIADAVACAKRVVRDPQGIRAWVAWRNRCQNRDVRQYVQGCGV
Homo sapiens, pH 3, 10 °C, GdnHCl, Fluorescence, glycine-HCl 40 mM, reversible: yes
  unfolding free energy: 11.8 kcal/mol
Homo sapiens, pH 4, 10 °C, GdnHCl, CD, glycine-HCl 40 mM, reversible: yes
  unfolding free energy: 14 kcal/mol
[12]
  denaturant m value: 3.6 kcal/mol/M
  denaturant midpoint (higher = more stable): 4.12 M
  unfolding free energy: 14.7 kcal/mol

Source: FireProtDB
